T1: mouse TNFα (mouse, UniProt P06804 80-235)
T1 sequence (looked up): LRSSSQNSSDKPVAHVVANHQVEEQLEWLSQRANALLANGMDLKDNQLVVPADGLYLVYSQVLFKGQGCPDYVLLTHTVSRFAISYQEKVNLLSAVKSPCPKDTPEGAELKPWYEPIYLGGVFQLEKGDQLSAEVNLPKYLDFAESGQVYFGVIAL


How the values were obtained:
IL-1β = test: BLI (ForteBio Octet Red), target adsorbed on the probe
mouse TNFα [1] = target: T1, mouse TNFα; test: cell-based or functional assay
mouse TNFα [2] = target: T1, mouse TNFα; test: BLI (ForteBio Octet Red), target adsorbed on the probe

IL-1β, sequence (P01584 117-269): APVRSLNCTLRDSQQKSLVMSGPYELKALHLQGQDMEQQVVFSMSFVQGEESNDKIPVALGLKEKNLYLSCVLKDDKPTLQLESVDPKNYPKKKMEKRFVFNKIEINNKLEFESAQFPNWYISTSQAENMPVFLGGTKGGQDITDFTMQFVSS

Kd (IL-1β)	Kd (mouse TNFα [2])	Binder	IC50 (nM), Bioactivity Data; assay not given, the filing describes IC50 from the L929 fibroblast cell survival assay with TNFα (mouse TNFα [1])
0.84 nM		(anti-IL-1β scFv antibody-EMCH)15-HyA (2000 kDa) (scFv, engineered cysteine thiol linked through EMCH (maleimide) to hyaluronic acid (HyA, 2000 kDa)) scFv: SNAEIVMTQSPSTLSASVGDRVIITCQASQSIDNWLSWYQQKPGKAPKLLIYRASTLASGVPSRFSGSGSGAEFTLTISSLQPDDFATYYCQNTGGGVSIAFGQGTKLTVLGGGGGSGGGGSGGGGSGGGGSEVQLVESGGGLVQPGGSLRLSCTASGFSLSSAAMAWVRQAPGKGLEWVGIIYDSASTYYASWAKGRFTISRDTSKNTVYLQMNSLRAEDTAVYYCARERAIFSGDFVLWGQGTLVTVSSSPSTPPTPSPSTPPGGC	
0.02 nM		(anti-IL-1β scFv antibody-EMCH)-CMC (700 kDa) (scFv, engineered cysteine thiol linked through EMCH (maleimide) to carboxymethyl cellulose (CMC, 700 kDa)) scFv: SNAEIVMTQSPSTLSASVGDRVIITCQASQSIDNWLSWYQQKPGKAPKLLIYRASTLASGVPSRFSGSGSGAEFTLTISSLQPDDFATYYCQNTGGGVSIAFGQGTKLTVLGGGGGSGGGGSGGGGSGGGGSEVQLVESGGGLVQPGGSLRLSCTASGFSLSSAAMAWVRQAPGKGLEWVGIIYDSASTYYASWAKGRFTISRDTSKNTVYLQMNSLRAEDTAVYYCARERAIFSGDFVLWGQGTLVTVSSSPSTPPTPSPSTPPGGC	
	0.17 nM	(anti-(mouse)TNFα VHH antibody-EMCH)273-HyA (2000 kDa) (VHH, engineered cysteine thiol linked through EMCH (maleimide) to hyaluronic acid (HyA, 2000 kDa), Multivalent peptide-polymer conjugate: about 273 VHH per HyA chain) VHH: QVQLQDSGGGLVQAGGSLRLSCAASGGTFSSIIMAWFRQAPGKEREFVGAVSWSGGTTVYADSVLGRFEISRDSARKSVYLQMNSLKPEDTAVYYCAARPYQKYNWASASYNVWGQGTQVTVSS	120 nM
